Results reported in US20020164304A1 (TRANSGENE, published 2002).

Target: T1, human α1-antitrypsin (human, UniProt P01009 25-418)
T1 construct: Secreted recombinant human α1AT found in culture supernatant; also called α1AT; human α1AT
Assay: supernatant incubated with active NE (3, 30, 300 nM; 30 min, 23°), then immunoprecipitation, SDS-PAGE and autoradiography
Procedure: (B) At various times after infection, the lungs were minced, incubated for 1 hour in methionine-free LHC-8 medium (37°), and then incubated for 24 hours in medium with (³⁵S)-methionine (1 ml medium/150 mg tissue; 500 μCi/ml). The supernatant was then evaluated by immunoprecipitation with a rabbit antibody to human α1AT (Boehringer Mannheim), SDS-polyacrylamide gels, and autoradiography as in FIG. 2E. Trichloroacetic acid-precipitable radioactivity was evaluated by immunoprecipitation (for lanes 10-15, 2×10⁶ cpm; for lanes 16-18, 1×10⁶ cpm). Autoradiogram exposures for lanes 10 to 15 were identical; lanes 16-18 were evaluated at a different time, and the exposures adjusted such that the intensity of the α1AT band without NE was similar to lane 13. The ability of the synthesized human α1AT to inhibit its natural substrate, NE, was evaluated by incubating the supernatant with various dilutions of active NE (30 min, 23°) before immmunoprecipitation.
The de novo expression of the human α1AT protein lasted at least 1 week (lane 15) and the secreted human α1AT was functional, as shown by its ability to form a complex with its natural target, human neutrophil elastase (NE) (lanes 16-18).

T1 sequence (P01009 25-418 limits assumed): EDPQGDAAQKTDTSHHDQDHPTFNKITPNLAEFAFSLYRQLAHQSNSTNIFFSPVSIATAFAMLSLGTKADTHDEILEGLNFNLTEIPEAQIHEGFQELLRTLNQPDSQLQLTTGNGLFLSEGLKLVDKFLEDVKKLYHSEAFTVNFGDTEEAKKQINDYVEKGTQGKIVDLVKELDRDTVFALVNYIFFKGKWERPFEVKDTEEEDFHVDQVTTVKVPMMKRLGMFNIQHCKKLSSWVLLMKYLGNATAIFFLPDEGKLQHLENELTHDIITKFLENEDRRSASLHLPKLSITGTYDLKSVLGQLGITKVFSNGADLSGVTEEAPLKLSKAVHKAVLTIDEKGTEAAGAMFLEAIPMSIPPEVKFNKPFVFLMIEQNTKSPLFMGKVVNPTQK

B1: human neutrophil elastase (enzyme, UniProt P08246 30-247, looked up)
chain: IVGGRRARPHAWPFMVSLQLRGGHFCGATLIAPNFVMSAAHCVANVNVRAVRVVLGAHNLSRREPTRQVFAVQRIFENGYDPVNLLNDIVILQLNGSATINANVQVAQLPAQGRRLGNGVQCLAMGWGLLGRNRGIASVLQELNVTVVTSLCRRSNVCTLVRGRQAGVCFGDSGSPLVCNGLIHGIASFVRGGCASGLYPDAFAPVAQFVNWIDSIIQ
notes: Described as active NE
**Q.** Does B1 bind?
**A.** binds
